Source: patent US20120178124A1, “STEROL SIDE CHAIN-CLEAVING ENZYME PROTEIN AND USE THEREOF” (MITSUBISHI CHEMICAL CORPORATION, priority 2009, published 2012)

Experiments:
Format in all cases: biochemical
[1] = Analysis of the optimum pH, conversion of 4-cholesten-3-one by cell-free extract; conditions: for Specific activity: 4-cholesten-3-one to progesterone, 30° C., 14 hours
Description: (§1) To 20 ml of the cell suspension prepared in (2) above, 680 μl of X10 Bug Buster (Novagen), 20 μl of Benzonase (Novagen), and 2 ml of 40 mg/ml lysozyme were added, and the obtained mixture was then shaken at 30° C. for 30 minutes to disintegrate the cells. Thereafter, the reaction solution was centrifuged to obtain the cell-free extract. The obtained, approximately 20 ml of cell-free extract was dialyzed against 1 L of Buffer R (20 mM KPB pH 7.4, 20% glycerol) two times, and the deposited precipitate was then removed by centrifugation. The cell-free extract obtained as a supernatant herein was used in the subsequent experiments.
Using the cell-free extract prepared in (3) above, conversion of 4-cholesten-3-one was carried out at various pH values. The reaction solution was prepared, such that 1 ml of Buffer R comprised […] CYP204A1 or […] CYPSS204A, 64 μg/ml spinach-derived ferredoxin, a 0.1 U/ml spinach-derived ferredoxin reductase protein, 3 U/ml glucose dehydrogenase, 60 mM glucose, 50 μg/ml 4-cholesten-3-one, 2 mM NADH, and 2 mM NADPH. Then, 562 μl of 200 mM Buffer having various pH values was added to 1 ml of the reaction solution, so as to adjust the pH of the reaction solution. The reaction was initiated by the addition of NADH and NADPH, and it was carried out at 200 rpm at 30° C. for 14 hours. Thereafter, 1.5 ml of ethyl acetate was added to the reaction solution to terminate the reaction, and extraction was carried out. Then, extraction was carried out again with 0.75 ml of ethyl acetate. The obtained ethyl acetate phase was solidified using evaporator, and the residue was then dissolved in 200.d of methanol. Thereafter, progesterone was detected by HPLC analysis. The enzyme protein activity for conversion of 4-cholesten-3-one to progesterone under various pH conditions is shown in Table 1. The enzyme protein activity was indicated by the amount (g) of progesterone generated per hour per mol of P450.

[2] = Analysis of the optimum temperature, conversion of 4-cholesten-3-one by cell-free extract; conditions: for Specific activity: Tris-HCl pH 7.5, 4 hours, 4-cholesten-3-one to progesterone
Description: as §1
Using the cell-free extract prepared in (3) above, conversion of 4-cholesten-3-one was carried out at […]. The reaction solution was prepared, such that 1 ml of the buffer comprised 215 pmol/ml CYP204A1 or 391 pmol/ml CYPSS, 64 μg/ml spinach-derived ferredoxin, 0.1 U/ml spinach-derived ferredoxin reductase protein, 3 U/ml glucose dehydrogenase, 60 mM glucose, 50 μg/ml 4-cholesten-3-one, 2 mM NADH, and 2 mM NADPH. Tris-HCl was added to the reaction solution so as to adjust it to pH 7.5. The reaction was initiated by addition of NADH and NADPH, and it was carried out at 200 rpm for 4 hours, under temperature conditions of 10° C., 15° C., 20° C., 25° C., or 30° C. Thereafter, 1.5 ml of ethyl acetate was added to the reaction solution to terminate the reaction, and extraction was carried out. Then, extraction was carried out again with 0.75 ml of ethyl acetate. The obtained ethyl acetate phase was solidified using evaporator, and the residue was then dissolved in 200 μl of methanol. Thereafter, progesterone was detected by HPLC analysis. The enzyme protein activity for conversion of 4-cholesten-3-one to progesterone under various temperature conditions is shown in Table 1.

[3] = pH stability test of cell-free extract; conditions: for Relative activity: 140 hr versus 0 hr, 6° C.; for Activity 0 hr: immediately after mixing, reaction 15° C., 4 hours, pH 7.5
Description: as §1
0.5 ml of the cell-free extract prepared in (3) above was mixed with 0.5 ml of 50 mM buffer having various pH values, pH was then measured, and the mixture was then conserved at 6° C. for 140 hours. […] Using the prepared cell-free extracts having various pH values, conversion of 4-cholesten-3-one was carried out. The reaction was carried out, immediately after the enzyme protein solution was mixed with buffers having various pH values and after the mixed solution was conserved for 140 hours, so as to examine the stability. The reaction solution was prepared, such that 1 ml of the buffer comprised an enzyme protein solution of CYP204A1 or CYPSS having various pH values, 64 μg/ml spinach-derived ferredoxin, 0.1 U/ml spinach-derived ferredoxin reductase protein, 3 U/ml glucose dehydrogenase, 60 mM glucose, 50 μg/ml 4-cholesten-3-one, 2 mM NADH, and 2 mM NADPH. To the reaction solution, 562 μl of 200 mM Tris-HCl was added, so as to adjust the reaction solution to pH 7.5. It was confirmed that the reaction solution maintained pH 7.5, even though enzyme protein solutions having various pH values were added thereto. The reaction was initiated by addition of NADH and NADPH, and it was carried out at 200 rpm at 15° C. for 4 hours. Thereafter, 1.5 ml of ethyl acetate was added to the reaction solution to terminate the reaction, and extraction was carried out. Then, extraction was carried out again with 0.75 ml of ethyl acetate. The obtained ethyl acetate phase was solidified using an evaporator, and the residue was then dissolved in 200 μl of methanol. Thereafter, progesterone was detected by HPLC analysis.

B1: Sphingomonas subterranea NBRC16086 P450scc CYPSS204A (CYPSS), wild type, SEQ ID NO: 2 (Novosphingobium subterraneum) (protein)
chain: MASAAAGADGLPLLDGGVPLLGHLAQFFRDPVSVLKRGYRSKGRLFAMNFMGQRMNVMLGPEHNRFFFEETDKLLSIRESMPFFLKMFSPEFYSFAEMDEYLRQRAIIMPRFKAASMKQYVPVMVEESLNLVERLGEEGEFDLIPTLGPVVMDIAAHSFMGREFHEKLGHEFFELFRDFSGGMEFVLPLWLPTPKMVKSQRAKKKLHAILQSWIDKRRASPLDPPDFFQTMIETKYPDGRAVPDEIIRHLILLLVWAGHETTAGQVSWALADLLQNPGYQQVLREEVASLLGGSDGRALGWEQAVAMEKMDLALRETERLHPVAYMLSRKASADIERDGYRIRKGEFVLLAPSVSHRMEETFRNADAYDPERFNPQNPDAQIESNSLIGFGGGVHRCAGVNFARMEMKVLVAILLQNFDMELIDEVRPIAGASTYWPAQPCRVRYKRRKLDGAGGSADVAALAKAAGCPAHA
- Specific activity ([1]; KPB pH 6.2): 0 g/h/mol
- Specific activity ([1]; KPB pH 6.7): 19 g/h/mol
- Specific activity ([1]; KPB pH 7.1): 21 g/h/mol
- Specific activity ([1]; KPB pH 7.4): 0 g/h/mol
- Specific activity ([1]; KPB pH 7.9): 0 g/h/mol
- Specific activity ([1]; TES pH 6.6): 0 g/h/mol
- Specific activity ([1]; TES pH 6.8): 16 g/h/mol
- Specific activity ([1]; TES pH 7.3): 76 g/h/mol
- Specific activity ([1]; TES pH 7.5): 165 g/h/mol
- Specific activity ([1]; TES pH 8.0): 168 g/h/mol
- Specific activity ([1]; Tris-HCl pH 7.5): 301 g/h/mol
- Specific activity ([1]; Tris-HCl pH 8.2): 269 g/h/mol
- Specific activity ([1]; Tris-HCl pH 8.7): 40 g/h/mol
- optimum pH (pH of highest activity) ([1]; conversion of 4-cholesten-3-one to progesterone): 7.5
- Specific activity ([2]; 10° C.): 918 g/h/mol
- Specific activity ([2]; 15° C.): 1279 g/h/mol
- Specific activity ([2]; 20° C.): 1133 g/h/mol
- Specific activity ([2]; 25° C.): 936 g/h/mol
- Specific activity ([2]; 30° C.): 465 g/h/mol
- optimum temperature for action (temperature of highest activity) ([2]; conversion of 4-cholesten-3-one to progesterone, pH 7.5): 15 °C
- Relative activity ([3]; AcB pH 6.0): 37%
- Activity 140 hr ([3]; AcB pH 6.0, conserved at 6° C. for 140 hours): 2.7 µg/mL
- Activity 0 hr ([3]; AcB pH 6.0): 7.3 µg/mL
- Relative activity ([3]; KPB pH 6.7): 61%
- Activity 140 hr ([3]; KPB pH 6.7, conserved at 6° C. for 140 hours): 4.3 µg/mL
- Activity 0 hr ([3]; KPB pH 6.7): 7.1 µg/mL
- Relative activity ([3]; KPB pH 7.2): 73%
- Activity 140 hr ([3]; KPB pH 7.2, conserved at 6° C. for 140 hours): 5.3 µg/mL
- Activity 0 hr ([3]; KPB pH 7.2): 7.3 µg/mL
- Relative activity ([3]; KPB pH 7.6): 85%
- Activity 140 hr ([3]; KPB pH 7.6, conserved at 6° C. for 140 hours): 5.5 µg/mL
- Activity 0 hr ([3]; KPB pH 7.6): 6.5 µg/mL
- pH at which most stable ([3]; KPB, conserved at 6° C. for 140 hours): 7.6
- Relative activity ([3]; TES pH 7.5): 71%
- Activity 140 hr ([3]; TES pH 7.5, conserved at 6° C. for 140 hours): 5.2 µg/mL
- Activity 0 hr ([3]; TES pH 7.5): 7.3 µg/mL
- Relative activity ([3]; Tris pH 7.4): 63%
- Activity 140 hr ([3]; Tris pH 7.4, conserved at 6° C. for 140 hours): 5 µg/mL
- Activity 0 hr ([3]; Tris pH 7.4): 8 µg/mL
- Relative activity ([3]; Tris pH 8.1): 65%
- Activity 140 hr ([3]; Tris pH 8.1, conserved at 6° C. for 140 hours): 4.5 µg/mL
- Activity 0 hr ([3]; Tris pH 8.1): 6.9 µg/mL
- Relative activity ([3]; Tris pH 8.9): 51%
- Activity 140 hr ([3]; Tris pH 8.9, conserved at 6° C. for 140 hours): 3.7 µg/mL
- Activity 0 hr ([3]; Tris pH 8.9): 7.3 µg/mL
